Experimental data reported in patent US20200283528A1 (NUMAB THERAPEUTICS, published 2020).

Columns and labels:
[1] = target: T1, human PDL1 (recombinant, soluble) (human, UniProt Q9NZQ7 19-238); experiment: PD-1/PDL1 competition ELISA in the presence of 1 mg/ml human serum albumin: biotinylated human PDL1 pre-incubated with the inhibitor, then binding to plate-coated human PD-1; blocked ligand PD-1
T1 construct: also called hPDL1; hPD-L1
Experimental: (§1) ELISA microplates coated overnight at 4° C. with 4 μg/ml human PD-1 were washed three times with 450 μl wash buffer per well. Plates were blocked for 1 hour at room temperature by adding 300 μl of PBS with 1% BSA and 0.2% tween (dilution buffer) to each well. […] The mixtures were pre-incubated for 1 hour at room temperature under gentle agitation on a rotating mixer (21 rpm) and added to the microplates after 3 wash cycles with 450 μl wash buffer per well. Plates were incubated for 1.5 hours at room temperature under gentle agitation, then 10 ng/ml streptavidin-polyHRP40 was added to each microplate well after three washes with 450 μl of wash buffer per well. After 1 h incubation at RT, plates were washed three times with 450 μl wash buffer and TMB substrate solution was added. The enzymatic reaction was stopped after 6 minutes by addition of 1 M HCl and absorbance was measured at 450 nm using 690 nm as a reference wavelength. For calculation of IC₅₀ values, a four-parameter logistic (4PL) curve fit was performed in Graph Pad Prism using reference subtracted values.

[2] = target: human PDL1 expressed on cells (human, UniProt Q9NZQ7 19-290); experiment: cell-based or functional assay
[3] = target: T1, human PDL1 (recombinant, soluble); experiment: PDL1/B7-1 competition ELISA; B7-1 coated, biotinylated PDL1 40 ng/ml
[4] = target: T1, human PDL1 (recombinant, soluble); experiment: PDL1/PD-1 competition ELISA; PD-1 coated, biotinylated PDL1 1 ng/ml
[5] = target: T1, human PDL1 (recombinant, soluble); experiment: PDL1/PD-1 competition ELISA with human serum albumin
Experimental: as §1

IC50 (read off the curve) [1]: ~0.02 µg/mL
NF-AT potency assay IC50 (with HSA) [2]: 0.665 µg/mL
IC50 [3]: 0.0163 µg/mL
IC50 [4]: 0.00861 µg/mL
fold higher IC50 in presence of human serum albumin [5]: ~2 fold
B1: PRO1057 (38_02_A04 sc01 scDb-i/33-03-G02 sc01 scDb-o/mxr HSA (23-13-A01-sc03, sk17sh4)) (other)
chain: DIQMTQSPSSLSASVGDRVTITCQASQSINDYLAWYQQKPGKAPKLLIYKASTLASGVPSRFSGSGSGTDFTLTISSLQPEDFATYYCQQGYIITDIDNVFGTGTKVTVLGGGGGSQVQLQESGPGLVKPSETLSLTCKVSGFSFSNSYWICWIRQPPGKGLEWIGCTFVGSSDSTYYANWAKGRVTISVDSSKNQFSLKLSSVTAADTAVYYCARHPSDAVYGYANNLWGQGTLVTVSSGGGGSGGGGSGGGGSGGGGSIQMTQSPSSLSASVGDRVTITCQASQSINNVLAWYQQKPGKAPKLLIYRASTLASGVPSRFSGSGSGTDFTLTISSLQPEDFATYYCQSSYGNYGDFGTGTKVTVLGGGGGSQVQLQESGPGLVKPSETLSLTCKVSGFSFSSGYDMCWIRQPPGKGLEWIGCVVAGSVDITYYASWAKGRVTISVDSSKNQFSLKLSSVTAADTAVYYCARKDAYSDAFNLWGQGTLVTVSSGGGGSGGGGSVVMTQSPSSLSASVGDRVTITCQASQIISSRSAWYQQKPGQPPKLLIYQASKLASGVPSRFSGSGSGTDFTLTISSLQPEDFATYYCQCTYIDSNFGAFGGGTKLTVLGGGGGSGGGGSGGGGSGGGGSEVQLVESGGGLVQPGGSLRLSCAASGFSFSSSYWICWVRQAPGKGLEWVGCVFTGDGTTYYASWAKGRFTISRDNSKNTVYLQMNSLRAEDTATYFCARPVSVYYYGMDLWGQGTLVTVSS
